Assay results from patent US10543259.
Positions count from the first letter of the chain named. Names and notes keep the numbering of the source.

T1: recombinant human IGFBP-4, 125I-labeled, P22692
T1 chain: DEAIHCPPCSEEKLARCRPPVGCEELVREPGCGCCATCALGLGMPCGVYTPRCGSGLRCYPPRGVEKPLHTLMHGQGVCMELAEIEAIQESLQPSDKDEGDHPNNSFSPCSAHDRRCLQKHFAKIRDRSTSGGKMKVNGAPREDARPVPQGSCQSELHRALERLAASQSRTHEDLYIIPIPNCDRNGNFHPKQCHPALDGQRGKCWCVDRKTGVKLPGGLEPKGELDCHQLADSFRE

B1: recombinant wild-type human PAPP-A2 (pregnancy-associated plasma protein-A2) (protein)
chain: PPEESNQNGGEGSYREAETFNSQVGLPILYFSGRRERLLLRPEVLAEIPREAFTVEAWVKPEGGQNNPAIIAGVFDNCSHTVSDKGWALGIRSGKDKGKRDARFFFSLCTDRVKKATILISHSRYQPGTWTHVAATYDGRHMALYVDGTQVASSLDQSGPLNSPFMASCRSLLLGGDSSEDGHYFRGHLGTLVFWSTALPQSHFQHSSQHSSGEEEATDLVLTASFEPVNTEWVPFRDEKYPRLEVLQGFEPEPEILSPLQPPLCGQTVCDNVELISQYNGYWPLRGEKVIRYQVVNICDDEGLNPIVSEEQIRLQHEALNEAFSRYNISWQLSVHQVHNSTLRHRVVLVNCEPSKIGNDHCDPECEHPLTGYDGGDCRLQGRCYSWNRRDGLCHVECNNMLNDFDDGDCCDPQVADVRKTCFDPDSPKRAYMSVKELKEALQLNSTHFLNIYFASSVREDLAGAATWPWDKDAVTHLGGIVLSPAYYGMPGHTDTMIHEVGHVLGLYHVFKGVSERESCNDPCKETVPSMETGDLCADTAPTPKSELCREPEPTSDTCGFTRFPGAPFTNYMSYTDDNCTDNFTPNQVARMHCYLDLVYQQWTESRKPTPIPIPPMVIGQTNKSLTIHWLPPISGVVYDRASGSLCGACTEDGTFRQYVHTASSRRVCDSSGYWTPEEAVGPPDVDQPCEPSLQAWSPEVHLYHMNMTVPCPTEGCSLELLFQHPVQADTLTLWVTSFFMESSQVLFDTEILLENKESVHLGPLDTFCDIPLTIKLHVDGKVSGVKVYTFDERIEIDAALLTSQPHSPLCSGCRPVRYQVLRDPPFASGLPVVVTHSHRKFTDVEVTPGQMYQYQVLAEAGGELGEASPPLNHIHGAPYCGDGKVSERLGEECDDGDLVSGDGCSKVCELEEGFNCVGEPSLCYMYEGDGICEPFERKTSIVDCGIYTPKGYLDQWATRAYSSHEDKKKCPVSLVTGEPHSLICTSYHPDLPNHRPLTGWFPCVASENETQDDRSEQPEGSLKKEDEVWLKVCFNRPGEARAIFIFLTTDGLVPGEHQQPTVTLYLTDVRGSNHSLGTYGLSCQHNPLIINVTHHQNVLFHHTTSVLLNFSSPRVGISAVALRTSSRIGLSAPSNCISEDEGQNHQGQSCIHRPCGKQDSCPSLLLDHADVVNCTSIGPGLMKCAITCQRGFALQASSGQYIRPMQKEILLTCSSGHWDQNVSCLPVDCGVPDPSLVNYANFSCSEGTKFLKRCSISCVPPAKLQGLSPWLTCLEDGLWSLPEVYCKLECDAPPIILNANLLLPHCLQDNHDVGTICKYECKPGYYVAESAEGKVRNKLLKIQCLEGGIWEQGSCIPVVCEPPPPVFEGMYECTNGFSLDSQCVLNCNQEREKLPILCTKEGLWTQEFKLCENLQGECPPPPSELNSVEYKCEQGYGIGAVCSPLCVIPPSDPVMLPENITADTLEHWMEPVKVQSIVCTGRRQWHPDPVLVHCIQSCEPFQADGWCDTINNRAYCHYDGGDCCSSTLSSKKVIPFAADCDLDECTCRDPKAEENQ
B2: PAPP-A2(A1033V) (protein)
chain: B1 chain with A799V

What was measured:
[1] = target: recombinant human IGFBP-3, 125I-labeled, P17936
[2] = target: T1, recombinant human IGFBP-4, …
[3] = target: recombinant human IGFBP-5, 125I-labeled, P24593
recombinant human IGFBP-5, 125I-labeled, P24593, sequence (P24593 21-272): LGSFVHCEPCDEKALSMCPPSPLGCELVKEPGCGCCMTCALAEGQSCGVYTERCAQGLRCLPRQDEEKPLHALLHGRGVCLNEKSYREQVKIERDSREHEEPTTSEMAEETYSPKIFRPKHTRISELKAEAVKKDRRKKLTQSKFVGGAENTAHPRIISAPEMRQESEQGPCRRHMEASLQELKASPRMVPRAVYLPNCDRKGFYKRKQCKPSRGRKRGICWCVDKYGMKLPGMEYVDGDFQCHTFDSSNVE

recombinant human IGFBP-3, 125I-labeled, P17936, sequence (P17936 28-291): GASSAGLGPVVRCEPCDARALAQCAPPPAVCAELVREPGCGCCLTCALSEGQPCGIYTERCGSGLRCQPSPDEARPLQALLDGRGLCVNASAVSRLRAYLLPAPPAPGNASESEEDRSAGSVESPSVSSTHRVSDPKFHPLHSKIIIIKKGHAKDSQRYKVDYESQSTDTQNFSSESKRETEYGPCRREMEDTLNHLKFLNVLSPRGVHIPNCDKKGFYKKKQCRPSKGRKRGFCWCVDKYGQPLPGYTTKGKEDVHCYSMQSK

| Protein | proteolytic cleavage of radiolabeled IGFBP (SDS-PAGE, autoradiography) [1] | proteolytic cleavage of radiolabeled IGFBP (SDS-PAGE, autoradiography) [2] | proteolytic cleavage of radiolabeled IGFBP (SDS-PAGE, autoradiography) [3] | proteolytic cleavage at equimolar concentrations of wild type and mutant (6 h reaction) [1] | proteolytic cleavage at equimolar concentrations of wild type and mutant (6 h reaction) [3] |
| --- | --- | --- | --- | --- | --- |
| B1 | media from cells transfected with WT PAPP-A2 cDNA completely cleaved these substrates | none of the variants cleaved the PAPP-A substrate, IGFBP-4 | media from cells transfected with WT PAPP-A2 cDNA completely cleaved these substrates |  |  |
| B2 | showed no proteolytic activity towards IGFBP-3 or -5 | none of the variants cleaved the PAPP-A substrate, IGFBP-4 | showed no proteolytic activity towards IGFBP-3 or -5 | at equimolar concentrations (FIG. 3C), it still showed no activity | at equimolar concentrations (FIG. 3C), it still showed no activity |
